Reference: IntAct's records for PubMed 19805289

B1: ATP-dependent RNA helicase DBP5 (Saccharomyces cerevisiae), P20449 (parent)
chain: MSDTKRDPADLLASLKIDNEKEDTSEVSTKETVKSQPEKTADSIKPAEKLVPKVEEKKTKQEDSNLISSEYEVKVKLADIQADPNSPLYSAKSFDELGLAPELLKGIYAMKFQKPSKIQERALPLLLHNPPRNMIAQSQSGTGKTAAFSLTMLTRVNPEDASPQAICLAPSRELARQTLEVVQEMGKFTKITSQLIVPDSFEKNKQINAQVIVGTPGTVLDLMRRKLMQLQKIKIFVLDEADNMLDQQGLGDQCIRVKRFLPKDTQLVLFSATFADAVRQYAKKIVPNANTLELQTNEVNVDAIKQLYMDCKNEADKFDVLTELYGLMTIGSSIIFVATKKTANVLYGKLKSEGHEVSILHGDLQTQERDRLIDDFREGRSKVLITTNVLARGIDIPTVSMVVNYDLPTLANGQADPATYIHRIGRTGRFGRKGVAISFVHDKNSFNILSAIQKYFGDIEMTRVPTDDWDEVEKIVKKVLKD
partner: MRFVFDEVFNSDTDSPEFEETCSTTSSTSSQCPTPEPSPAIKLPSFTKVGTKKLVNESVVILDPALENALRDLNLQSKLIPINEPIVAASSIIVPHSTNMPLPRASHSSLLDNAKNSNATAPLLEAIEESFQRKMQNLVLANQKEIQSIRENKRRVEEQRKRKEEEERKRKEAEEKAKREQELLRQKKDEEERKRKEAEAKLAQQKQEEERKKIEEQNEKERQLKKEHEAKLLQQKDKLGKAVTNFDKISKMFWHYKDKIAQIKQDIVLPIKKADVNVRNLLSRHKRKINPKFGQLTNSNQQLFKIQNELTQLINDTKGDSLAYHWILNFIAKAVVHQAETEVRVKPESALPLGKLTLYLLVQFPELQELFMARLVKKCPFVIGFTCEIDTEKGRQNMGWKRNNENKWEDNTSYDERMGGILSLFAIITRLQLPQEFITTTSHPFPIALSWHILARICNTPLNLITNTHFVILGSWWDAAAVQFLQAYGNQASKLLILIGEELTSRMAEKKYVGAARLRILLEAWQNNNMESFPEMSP

Variants of: B1
Details: with gle1_yeast GLE1, Q12315
E353K was tested, and the “effect of a mutation on the interaction” value was “decreasing interaction”.
E323K was tested, and the “effect of a mutation on the interaction” value was “disrupting interaction”.
With T329A the “effect of a mutation on the interaction” value was “decreasing interaction”.
With K382E the “effect of a mutation on the interaction” value was “disrupting interaction”.
E473K was tested, and the “effect of a mutation on the interaction” value was “disrupting interaction”.
With E473A the “effect of a mutation on the interaction” value was “decreasing interaction”.

Variants of: B1
Details: with gle1_yeast GLE1, Q12315
Remark: another data set of the same source
With E323K the “effect of a mutation on the interaction” value was “decreasing interaction”.
K382E was tested, and the “effect of a mutation on the interaction” value was “decreasing interaction”.
In the case of E473K, the “effect of a mutation on the interaction” value is reported as “decreasing interaction”.
